B1: XENP33366 (bispecific antibody)
heavy: QVQLVQSGAEVKKPGASVKVSCKASGYTFTSYWMHWVRQAPGQGLEWMGWIHPNSDNTIYYEKFQGRVTMTVDKSISTAYMELSRLRSDDTAVYYCAIIITPVVPKFDYWGQGTLVTVSSASTKGPSVFPLAPSSKSTSGGTAALGCLVKDYFPEPVTVSWNSGALTSGVHTFPAVLQSSGLYSLSSVVTVPSSSLGTQTYICNVNHKPSDTKVDKKVEPKSCDKTHTCPPCPAPPVAGPSVFLFPPKPKDTLMISRTPEVTCVVVDVKHEDPEVKFNWYVDGVEVHNAKTKPREEEYNSTYRVVSVLTVLHQDWLNGKEYKCKVSNKALPAPIEKTISKAKGQPREPQVYTLPPSREEMTKNQVSLTCDVSGFYPSDIAVEWESDGQPENNYKTTPPVLDSDGSFFLYSKLTVDKSRWEQGDVFSCSVMHEALHNHYTQKSLSLSPGK
Fab-scFv-Fc: QVQLVQSGAEVKKPGASVKVSCKASGYTFTSYWMHWVRQAPGQGLEWMGWIHPNSDNTIYYEKFQGRVTMTVDKSISTAYMELSRLRSDDTAVYYCAIIITPVVPKFDYWGQGTLVTVSSASTKGPSVFPLAPSSKSTSGGTAALGCLVKDYFPEPVTVSWNSGALTSGVHTFPAVLQSSGLYSLSSVVTVPSSSLGTQTYICNVNHKPSNTKVDKKVEPKSCGGGGSGGGGSQAVVTQEPSLTVSPGGTVTLTCGSSTGAVTTSNYANWVQQKPGKSPRGLIGGTNKRAPGVPARFSGSLLGGKAALTISGAQPEDEADYYCALWYSNHWVFGGGTKLTVLGKPGSGKPGSGKPGSGKPGSEVQLVESGGGLVQPGGSLRLSCAASGFTFSTYAMNWVRQAPGKGLEWVGRIRSKANNYATYYADSVKGRFTISRDDSKNTLYLQMNSLRAEDTAVYYCVRHGNFGDSYVSWFAYWGQGTLVTVSSGGGGSGGGGSKTHTCPPCPAPPVAGPSVFLFPPKPKDTLMISRTPEVTCVVVDVKHEDPEVKFNWYVDGVEVHNAKTKPREEQYNSTYRVVSVLTVLHQDWLNGKEYKCKVSNKALPAPIEKTISKAKGQPREPQVYTLPPSREQMTKNQVKLTCLVKGFYPSDIAVEWESNGQPENNYKTTPPVLDSDGSFFLYSKLTVDKSRWQQGNVFSCSVMHEALHNHYTQKSLSLSPGK
light: DIVMTQSPDSLAVSLGERATINCKASHDVGQSVAWYQQKPGQSPKLLIYWASTRHTGVPDRFTGSGSGTDFTLTISSLQAEDVAVYFCQQYSSYPLTFGAGTKLEIKRTVAAPSVFIFPPSDEQLKSGTASVVCLLNNFYPREAKVQWKVDNALQSGNSQESVTEQDSKDSTYSLSSTLTLSKADYEKHKVYACEVTHQGLSSPVTKSFNRGEC
notes: 2+1 Fab2-scFv-Fc
B2: XENP33367 (bispecific antibody)
heavy: QVQLVQSGAEVKKPGASVKVSCKASGYTFTSYWMHWVRQAPGQGLEWMGWIHPNSDNTIYYEKFQGRVTMTVDKSISTAYMELSRLRSDDTAVYYCAIIITPVVPKFDYWGQGTLVTVSSASTKGPSVFPLAPSSKSTSGGTAALGCLVKDYFPEPVTVSWNSGALTSGVHTFPAVLQSSGLYSLSSVVTVPSSSLGTQTYICNVNHKPSDTKVDKKVEPKSCDKTHTCPPCPAPPVAGPSVFLFPPKPKDTLMISRTPEVTCVVVDVKHEDPEVKFNWYVDGVEVHNAKTKPREEEYNSTYRVVSVLTVLHQDWLNGKEYKCKVSNKALPAPIEKTISKAKGQPREPQVYTLPPSREEMTKNQVSLTCDVSGFYPSDIAVEWESDGQPENNYKTTPPVLDSDGSFFLYSKLTVDKSRWEQGDVFSCSVMHEALHNHYTQKSLSLSPGK
Fab-scFv-Fc: QVQLVQSGAEVKKPGASVKVSCKASGYTFTSYWMHWVRQAPGQGLEWMGWIHPNSDNTIYYEKFQGRVTMTVDKSISTAYMELSRLRSDDTAVYYCAIIITPVVPKFDYWGQGTLVTVSSASTKGPSVFPLAPSSKSTSGGTAALGCLVKDYFPEPVTVSWNSGALTSGVHTFPAVLQSSGLYSLSSVVTVPSSSLGTQTYICNVNHKPSNTKVDKKVEPKSCGGGGSGGGGSQAVVTQEPSLTVSPGGTVTLTCGSSTGAVTTSNYANWVQQKPGKSPRGLIGGTNKRAPGVPARFSGSLLGGKAALTISGAQPEDEADYYCALWYSNHWVFGGGTKLTVLGKPGSGKPGSGKPGSGKPGSEVQLVESGGGLVQPGGSLRLSCAASGFTFSTYAMNWVRQAPGKGLEWVGRIRSKANNYATYYADSVKGRFTISRDDSKNTLYLQMNSLRAEDTAVYYCVRHGNFGDSYVSWFAYWGQGTLVTVSSGGGGSGGGGSKTHTCPPCPAPPVAGPSVFLFPPKPKDTLMISRTPEVTCVVVDVKHEDPEVKFNWYVDGVEVHNAKTKPREEQYNSTYRVVSVLTVLHQDWLNGKEYKCKVSNKALPAPIEKTISKAKGQPREPQVYTLPPSREQMTKNQVKLTCLVKGFYPSDIAVEWESNGQPENNYKTTPPVLDSDGSFFLYSKLTVDKSRWQQGNVFSCSVMHEALHNHYTQKSLSLSPGK
light: DIVMTQSPDSLAVSLGERATINCKASHDVGTSVAWYQQKPGQSPKLLIYWASTRHTGVPDRFTGSGSGTDFTLTISSLQAEDVAVYFCQQYSSFPLTFGAGTKLEIKRTVAAPSVFIFPPSDEQLKSGTASVVCLLNNFYPREAKVQWKVDNALQSGNSQESVTEQDSKDSTYSLSSTLTLSKADYEKHKVYACEVTHQGLSSPVTKSFNRGEC
notes: 2+1 Fab2-scFv-Fc

Target: T1, human MSLN antigen (human, UniProt Q13421 296-580, limits assumed)
T1 construct: Soluble antigen for BLI; also called Mesothelin; MESO
Assay: MSLN binding affinity (Octet BLI, Example 2B(a)); quoted in the RTCC example

T1 sequence (Q13421 other isoform, or with tags, fused parts or gaps limits assumed): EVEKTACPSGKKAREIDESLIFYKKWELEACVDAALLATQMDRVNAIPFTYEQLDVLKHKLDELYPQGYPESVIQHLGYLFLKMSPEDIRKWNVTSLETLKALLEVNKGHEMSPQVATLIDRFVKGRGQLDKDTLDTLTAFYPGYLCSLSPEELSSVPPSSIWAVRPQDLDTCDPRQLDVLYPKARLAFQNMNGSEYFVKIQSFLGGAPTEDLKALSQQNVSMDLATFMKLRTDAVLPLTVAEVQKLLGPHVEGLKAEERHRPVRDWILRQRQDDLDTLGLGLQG

Binder	Kd [nM]
B1	90.4
B2	246
